Measurements published in publication PMC10112965, “Characterization of the nuclear import of the human CHD4–NuRD complex” (Journal of Cell Science, 2023).

Target: the molecule itself
Assay: native gel or EMSA; 1 µg protein on a 4–16% NativePAGE gel with G-250 additive, room temperature, 150 V for 2 h, stained with Coomassie and silver

Protein | stoichiometry N
CHD4-C-Flag, C-terminal Flag-tagged recombinant human CHD4 wild-type (enzyme, UniProt Q14839 1-1912, looked up, human CHD4, chromatin remodeling ATPase of NuRD, UniProt Q14839, 1912 aa; Construct (pDFB6 C-Flag) is described in Hoffmeister et al., 2017; also called hCHD4 wild-type; C-Flag hCHD4; not shown: Flag, C-terminal, kept) MASGLGSPSPCSAGSEEEDMDALLNNSLPPPHPENEEDPEEDLSETETPKLKKKKKPKKPRDPKIPKSKRQKKERMLLCRQLGDSSGEGPEFVEEEEEVALRSDSEGSDYTPGKKKKKKLGPKKEKKSKSKRKEEEEEEDDDDDSKEPKSSAQLLEDWGMEDIDHVFSEEDYRTLTNYKAFSQFVRPLIAAKNPKIAVSKMMMVLGAKWREFSTNNPFKGSSGASVAAAAAAAVAVVESMVTATEVAPPPPPVEVPIRKAKTKEGKGPNARRKPKGSPRVPDAKKPKPKKVAPLKIKLGGFGSKRKRSSSEDDDLDVESDFDDASINSYSVSDGSTSRSSRSRKKLRTTKKKKKGEEEVTAVDGYETDHQDYCEVCQQGGEIILCDTCPRAYHMVCLDPDMEKAPEGKWSCPHCEKEGIQWEAKEDNSEGEEILEEVGGDLEEEDDHHMEFCRVCKDGGELLCCDTCPSSYHIHCLNPPLPEIPNGEWLCPRCTCPALKGKVQKILIWKWGQPPSPTPVPRPPDADPNTPSPKPLEGRPERQFFVKWQGMSYWHCSWVSELQLELHCQVMFRNYQRKNDMDEPPSGDFGGDEEKSRKRKNKDPKFAEMEERFYRYGIKPEWMMIHRILNHSVDKKGHVHYLIKWRDLPYDQASWESEDVEIQDYDLFKQSYWNHRELMRGEEGRPGKKLKKVKLRKLERPPETPTVDPTVKYERQPEYLDATGGTLHPYQMEGLNWLRFSWAQGTDTILADEMGLGKTVQTAVFLYSLYKEGHSKGPFLVSAPLSTIINWEREFEMWAPDMYVVTYVGDKDSRAIIRENEFSFEDNAIRGGKKASRMKKEASVKFHVLLTSYELITIDMAILGSIDWACLIVDEAHRLKNNQSKFFRVLNGYSLQHKLLLTGTPLQNNLEELFHLLNFLTPERFHNLEGFLEEFADIAKEDQIKKLHDMLGPHMLRRLKADVFKNMPSKTELIVRVELSPMQKKYYKYILTRNFEALNARGGGNQVSLLNVVMDLKKCCNHPYLFPVAAMEAPKMPNGMYDGSALIRASGKLLLLQKMLKNLKEGGHRVLIFSQMTKMLDLLEDFLEHEGYKYERIDGGITGNMRQEAIDRFNAPGAQQFCFLLSTRAGGLGINLATADTVIIYDSDWNPHNDIQAFSRAHRIGQNKKVMIYRFVTRASVEERITQVAKKKMMLTHLVVRPGLGSKTGSMSKQELDDILKFGTEELFKDEATDGGGDNKEGEDSSVIHYDDKAIERLLDRNQDETEDTELQGMNEYLSSFKVAQYVVREEEMGEEEEVEREIIKQEESVDPDYWEKLLRHHYEQQQEDLARNLGKGKRIRKQVNYNDGSQEDRDWQDDQSDNQSDYSVASEEGDEDFDERSEAPRRPSRKGLRNDKDKPLPPLLARVGGNIEVLGFNARQRKAFLNAIMRYGMPPQDAFTTQWLVRDLRGKSEKEFKAYVSLFMRHLCEPGADGAETFADGVPREGLSRQHVLTRIGVMSLIRKKVQEFEHVNGRWSMPELAEVEENKKMSQPGSPSPKTPTPSTPGDTQPNTPAPVPPAEDGIKIEENSLKEEESIEGEKEVKSTAPETAIECTQAPAPASEDEKVVVEPPEGEEKVEKAEVKERTEEPMETEPKGAADVEKVEEKSAIDLTPIVVEDKEEKKEEEEKKEVMLQNGETPKDLNDEKQKKNIKQRFMFNIADGGFTELHSLWQNEERAATVTKKTYEIWHRRHDYWLLAGIINHGYARWQDIQNDPRYAILNEPFKGEMNRGNFLEIKNKFLARRFKLLEQALVIEEQLRRAAYLNMSEDPSHPSMALNTRFAEVECLAESHQHLSKESMAGNKPANAVLHKVLKQLEELLSDMKADVTRLPATIARIPPVAVRLQMSERNILSRLANRAPEPTPQQVAQQQ | ≥ 3
CHD4-C-Flag Δ aa 217–360 (enzyme, human, UniProt Q14839 1-1912, looked up, not shown: Flag, C-terminal, kept) MASGLGSPSPCSAGSEEEDMDALLNNSLPPPHPENEEDPEEDLSETETPKLKKKKKPKKPRDPKIPKSKRQKKERMLLCRQLGDSSGEGPEFVEEEEEVALRSDSEGSDYTPGKKKKKKLGPKKEKKSKSKRKEEEEEEDDDDDSKEPKSSAQLLEDWGMEDIDHVFSEEDYRTLTNYKAFSQFVRPLIAAKNPKIAVSKMMMVLGAKWREFSTNNAVDGYETDHQDYCEVCQQGGEIILCDTCPRAYHMVCLDPDMEKAPEGKWSCPHCEKEGIQWEAKEDNSEGEEILEEVGGDLEEEDDHHMEFCRVCKDGGELLCCDTCPSSYHIHCLNPPLPEIPNGEWLCPRCTCPALKGKVQKILIWKWGQPPSPTPVPRPPDADPNTPSPKPLEGRPERQFFVKWQGMSYWHCSWVSELQLELHCQVMFRNYQRKNDMDEPPSGDFGGDEEKSRKRKNKDPKFAEMEERFYRYGIKPEWMMIHRILNHSVDKKGHVHYLIKWRDLPYDQASWESEDVEIQDYDLFKQSYWNHRELMRGEEGRPGKKLKKVKLRKLERPPETPTVDPTVKYERQPEYLDATGGTLHPYQMEGLNWLRFSWAQGTDTILADEMGLGKTVQTAVFLYSLYKEGHSKGPFLVSAPLSTIINWEREFEMWAPDMYVVTYVGDKDSRAIIRENEFSFEDNAIRGGKKASRMKKEASVKFHVLLTSYELITIDMAILGSIDWACLIVDEAHRLKNNQSKFFRVLNGYSLQHKLLLTGTPLQNNLEELFHLLNFLTPERFHNLEGFLEEFADIAKEDQIKKLHDMLGPHMLRRLKADVFKNMPSKTELIVRVELSPMQKKYYKYILTRNFEALNARGGGNQVSLLNVVMDLKKCCNHPYLFPVAAMEAPKMPNGMYDGSALIRASGKLLLLQKMLKNLKEGGHRVLIFSQMTKMLDLLEDFLEHEGYKYERIDGGITGNMRQEAIDRFNAPGAQQFCFLLSTRAGGLGINLATADTVIIYDSDWNPHNDIQAFSRAHRIGQNKKVMIYRFVTRASVEERITQVAKKKMMLTHLVVRPGLGSKTGSMSKQELDDILKFGTEELFKDEATDGGGDNKEGEDSSVIHYDDKAIERLLDRNQDETEDTELQGMNEYLSSFKVAQYVVREEEMGEEEEVEREIIKQEESVDPDYWEKLLRHHYEQQQEDLARNLGKGKRIRKQVNYNDGSQEDRDWQDDQSDNQSDYSVASEEGDEDFDERSEAPRRPSRKGLRNDKDKPLPPLLARVGGNIEVLGFNARQRKAFLNAIMRYGMPPQDAFTTQWLVRDLRGKSEKEFKAYVSLFMRHLCEPGADGAETFADGVPREGLSRQHVLTRIGVMSLIRKKVQEFEHVNGRWSMPELAEVEENKKMSQPGSPSPKTPTPSTPGDTQPNTPAPVPPAEDGIKIEENSLKEEESIEGEKEVKSTAPETAIECTQAPAPASEDEKVVVEPPEGEEKVEKAEVKERTEEPMETEPKGAADVEKVEEKSAIDLTPIVVEDKEEKKEEEEKKEVMLQNGETPKDLNDEKQKKNIKQRFMFNIADGGFTELHSLWQNEERAATVTKKTYEIWHRRHDYWLLAGIINHGYARWQDIQNDPRYAILNEPFKGEMNRGNFLEIKNKFLARRFKLLEQALVIEEQLRRAAYLNMSEDPSHPSMALNTRFAEVECLAESHQHLSKESMAGNKPANAVLHKVLKQLEELLSDMKADVTRLPATIARIPPVAVRLQMSERNILSRLANRAPEPTPQQVAQQQ | ≥ 3
